For one substance, rFRET results are on record in article PMC6403468.

In this assay the target is VLDLR fused to monomeric GFP (VLDLR_mGFP) (mouse). Briefly: FRET or BRET; time-resolved fluorescence anisotropy imaging (TR-FAIM, homo-FRET) of mGFP-tagged proteins in living HEK293 cells, rFRET from global fit, Imaging Medium; basal state, and before and after 1 uM AP20187, FL-Reelin or R3-6 (up to 90 nM).

Substance “VLDLR fused to monomeric GFP (VLDLR_mGFP) (receptor)” came in with a rFRET of 0.0858.
